The target in the assay is T1, Mcl-1, Q07820.
T1 chain: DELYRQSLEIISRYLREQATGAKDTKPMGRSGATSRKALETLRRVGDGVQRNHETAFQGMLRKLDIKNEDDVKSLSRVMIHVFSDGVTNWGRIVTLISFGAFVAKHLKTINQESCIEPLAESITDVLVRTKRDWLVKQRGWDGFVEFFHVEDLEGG
The assay can be described thus: peptide SPOT array, c-Myc-tagged receptor at 1 uM or 100 nM, anti-c-Myc-Cy3.

As for AIDAIFLTTTLQNISEDVLAVMDNKN [CKAP5], the SPOT signal as a fraction of Bim BH3's signal on the same receptor and array came out at 0.02.
To IVIDCSAIQFLDTAGIHTLKEVRRDY [SLC26A2] belongs 0.02; to SKSKIHAARSLSEIAIDLTETGTLKT [FRMD4A], 0.02; to LFKAADSSRSIYEVAMQLLQILEPKM [FRYL], 0.02.
Next, DFITALPARGLDHIAENILSYLDAKS [BTRC]: 0.02.
In turn, TWEIECTSEMLKKLSSKVMTKVIKKK [TRANK1] registered an SPOT signal as a fraction of Bim BH3's signal on the same receptor and array of 0.11.
With RTVESEAASYLDQISRYYITRAKLVS [PSME3], the SPOT signal as a fraction of Bim BH3's signal on the same receptor and array came to 0.15.
To SGEFARICRDDSHIGDAVVISCAKDG [PCNA] belongs 0.01; to DRFEGYCIDLLRELSTILGFTYEIRL [GRIK2], 0.02; to SVLRKALHDSLHDCSHWFYTRWKDWE [ZRANB1], 0.04.
LDDSVEVIKALKNGGAHLDFRAKDGM [SHANK2]: the SPOT signal as a fraction of Bim BH3's signal on the same receptor and array stood at 0.02.
Regarding KYFLQNFSCFLEETADEWAEKMPKGP [EFCAB6], the SPOT signal as a fraction of Bim BH3's signal on the same receptor and array is 0.03.
Consider DVTHSKAVEALKEAGSIVRLYVKRRK [DLG1], for which the SPOT signal as a fraction of Bim BH3's signal on the same receptor and array was 0.13.
Consider VPARAPAVDLLEEAADLLVVHLDFRA [PEX26], for which the SPOT signal as a fraction of Bim BH3's signal on the same receptor and array is 0.02.
Next, FSDCLMVVQFLRNFGKVLGFDVNIDV [BAZ2B]: 0.02; GKDHPAVAATLNNLAVLYGKRGKYKE [KLC1]: 0.22.
Next, AKTSQTVATFLDELAQKLKPLGEQER [THOP1]: 0.02; RGPEAPGGRALRDAAENLFQELQEHF [PRR20C]: 0.02.
Next, FDRAVVLSHYIHNLSSEMFSEFDKRY [PRL]: 0.02; GSKSDPLCVLLQDVGGGSWAELGRTE [CPNE1]: 0.02.

Values taken from article PMC4072508, “Genome-Wide Prediction and Validation of Peptides That Bind Human Prosurvival Bcl-2 Proteins” (PLoS Computational Biology, 2014).
